Assay results: patent publication US20130121915A1
Positions count from the first letter of the chain named.

Experiments:
[1] = tested on: wild type OprD (FadL-OprD with C-terminal two glycines and 6 histidines)
[2] = biological target: FhuA7/10-1 with histidine tag; test: cell-based or functional assay
[3] = biological target: T1, native OPRD pseudomonas aeruginosa beta barrel channel polypeptide, expressed with surface antigen D15 signal peptide and a tag
T1 chain: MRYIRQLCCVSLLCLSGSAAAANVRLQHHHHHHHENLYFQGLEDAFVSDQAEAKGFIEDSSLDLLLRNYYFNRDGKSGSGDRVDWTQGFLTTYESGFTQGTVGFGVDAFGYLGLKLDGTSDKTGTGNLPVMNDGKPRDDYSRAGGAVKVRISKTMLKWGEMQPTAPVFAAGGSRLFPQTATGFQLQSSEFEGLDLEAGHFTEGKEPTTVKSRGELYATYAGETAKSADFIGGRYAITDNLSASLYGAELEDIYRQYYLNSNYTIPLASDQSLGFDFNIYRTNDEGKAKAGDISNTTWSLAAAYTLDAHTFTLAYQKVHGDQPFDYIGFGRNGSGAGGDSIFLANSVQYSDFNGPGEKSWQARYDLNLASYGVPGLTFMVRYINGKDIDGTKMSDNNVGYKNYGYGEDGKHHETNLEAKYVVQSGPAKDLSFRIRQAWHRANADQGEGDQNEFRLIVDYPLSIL

[4] = biological target: T2, OprD mutant L8 mmp7turk#3
T2 chain: T1 chain with G398A, K400S, N401L, Y402T, G403A, Y404G

[5] = biological target: T3, FhuA7/10-1 with histidine tag
T3 chain: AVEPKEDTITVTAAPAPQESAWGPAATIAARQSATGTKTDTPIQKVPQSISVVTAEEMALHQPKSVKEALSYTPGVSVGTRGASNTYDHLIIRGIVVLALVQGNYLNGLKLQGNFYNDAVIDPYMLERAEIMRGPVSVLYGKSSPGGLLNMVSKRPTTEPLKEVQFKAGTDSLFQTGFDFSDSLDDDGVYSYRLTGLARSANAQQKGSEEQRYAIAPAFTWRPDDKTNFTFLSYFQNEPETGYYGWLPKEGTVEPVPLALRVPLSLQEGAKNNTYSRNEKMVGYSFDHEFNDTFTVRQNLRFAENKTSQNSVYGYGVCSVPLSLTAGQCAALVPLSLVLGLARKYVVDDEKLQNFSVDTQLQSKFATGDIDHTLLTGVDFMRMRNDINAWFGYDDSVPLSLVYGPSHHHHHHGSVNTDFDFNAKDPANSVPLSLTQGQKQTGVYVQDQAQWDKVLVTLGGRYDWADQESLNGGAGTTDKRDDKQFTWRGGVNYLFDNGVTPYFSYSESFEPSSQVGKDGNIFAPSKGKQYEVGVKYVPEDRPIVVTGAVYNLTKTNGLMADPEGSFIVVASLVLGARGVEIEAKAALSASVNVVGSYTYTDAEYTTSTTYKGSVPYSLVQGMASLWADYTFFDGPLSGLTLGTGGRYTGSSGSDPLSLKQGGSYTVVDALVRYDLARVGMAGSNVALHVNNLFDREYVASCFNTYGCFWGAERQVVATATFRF

[6] = biological target: T4, wild type OprD (FadL-OprD with C-terminal two glycines and 6 histidines)
T4 chain: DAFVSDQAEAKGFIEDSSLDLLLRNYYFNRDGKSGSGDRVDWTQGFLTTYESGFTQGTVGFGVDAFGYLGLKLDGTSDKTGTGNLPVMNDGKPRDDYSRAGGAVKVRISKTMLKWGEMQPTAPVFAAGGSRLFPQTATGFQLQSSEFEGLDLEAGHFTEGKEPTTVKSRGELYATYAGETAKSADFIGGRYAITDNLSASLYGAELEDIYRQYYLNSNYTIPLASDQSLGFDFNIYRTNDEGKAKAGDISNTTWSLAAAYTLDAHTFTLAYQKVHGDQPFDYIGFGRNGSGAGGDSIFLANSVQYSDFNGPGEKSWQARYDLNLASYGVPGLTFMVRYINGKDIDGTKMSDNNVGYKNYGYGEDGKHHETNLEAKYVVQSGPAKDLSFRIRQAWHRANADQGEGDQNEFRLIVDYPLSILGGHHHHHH

factor Xa (Novagen, cat#69036-3) was tested, and the “proteolysis over time, gel bands” value (OprD mutant L8fxa#1) was “incubation of factor X with mutant L8fxa#1 (SEQ ID NO: 22788) shows specific cleavage, since bands “a” and “b” become more apparent with time” and the “proteolysis over time, gel bands” value [1] was “Incubation of Factor X enzyme with the wild type OPRD yields a few non specific bands”.

enterokinase (Novagen, cat#69066-3) was tested, and the “proteolysis over time, gel bands” value [1] was “Incubation of enterokinase with the wild type OprD yields a non specific band, that does not increase over time” and the “proteolysis over time, gel bands” value (OprD mutant L8rek#1) was “incubating enterokinase with the mutant L8rek#1 (SEQ ID NO: 22798) shows specific cleavage since band “a” disappears and band “b” becomes more apparent over time”.

With “human matrix metalloproteases seven (MMP-7, Calbiochem, cat #444270) (from UniProt P09237 95-267) (enzyme)” the inward ionic current, whole-cell patch clamp of HEK293T cells expressing FhuA7/10-1 after addition of MMP-7 [2] was 20000 >=.

B1: human matrix metalloproteases seven (MMP-7, Calbiochem, cat #444270) (protein)
chain: YSLFPNSPKWTSKVVTYRIVSYTRDLPHITVDRLVSKALNMWGKEIPLHFRKVVWGTADIMIGFARGAHGDSYPFDGPGNTLAHAFAPGTGLGGDAHFDEDERWTDGSSLGINFLYAATHELGHSLGMGHSSDPNAVMYPTYGNGDPQNFKLSQDDIKGIQKLYGKRSNSRKK
For B1, the “cleavage, Western blot” value [3] was “the native protein (solubilized in DDM) was not cleaved in the presence of MMP-7 (concentration 0.25 Units per 16 ug of total protein)”, the “proteolysis, gel bands” value [4] was “incubating mmp7 with the mutant L8 mmp7turk#3 (SEQ ID NO: 22836) shows cleavage as the main protein band disappears” and the “cleavage kinetics 0 to 720 min, Western blot and densitometry” value [5] was “the amount of uncleaved protein (˜81 kDa, indicated by ‘a’) decreases while the amount of the cleaved one increases (˜57 kDa, indicated by ‘b’); after 12 hours all His-tagged polypeptides (˜81 kDa) completely disappear along with the ˜57- and ˜37-kDa bands”. For the same molecule, the “cleavage of membrane-integrated FhuA7/10-1, Western blot with anti-His5” value [5] was “Incubation of the membranes with human MMP-7 for 30 minutes at 37 °C resulted in the appearance of ˜57- and ˜37-kDa bands” and the “proteolysis, gel bands” value [6] was “Incubation of MMP7 with wild type OprD yields a few non specific bands, compared with the control sample held at the same temperature for 24 hours but with out the MMP7”.
